Results from the nanobody polyreactivity screen of Harvey et al. (2022).

assay: yeast display, Sf9 membrane polyspecificity reagent, FACS + sequencing; frameworks hold sequencing errors
How it was run: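 A synthetic nanobody library was expressed on Saccharomyces cerevisiae BJ5465 by galactose induction for 36–48 hours. The library was stained for 1 hour at 4 °C with 10% biotinylated, detergent-solubilized Sf9 membrane reagent and enriched with streptavidin microbeads before FACS. Low and high (top ~1%) gates were set on anti-HA fluorescence for expression and streptavidin fluorescence for reagent binding, and each polyreactivity label reflects the gate of origin.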

Sequence | polyreactivity (PSR sort gate)
QVQLVESGGGLVQAGGSLRLSCAASGSTFDYNAMVWYRQAPGKESDLVVAITWGGDSTYADSVKGRFTISRDNAKNTVYLQMNSLKPEDTAVYYCAAEQDPWTSRYVFFASRYDYWGQGTQVTVSS | low polyreactivity
QVQLVESGGGLVQAGGSLRLSCAASGSTFDYNTMGWYRQAPGKERELVADITLRGASTYYADSVKGRFTISRDNAKNTVYLLMNSLKPEDTAVYYCNADYYWGTYANFDYWGQGTQVTVSS | low polyreactivity
QVQLVESGGGLVQAGGSLRLSCAASGSTFDYNTMGWYRQAPGTERELVADITWRGASTYYADSVKGRFTISRDNAKNTVYLQMNSLKPEDTAVYYCAADYYSATGSYAYDYWGQGTQVTVSS | low polyreactivity
QVQLVESGGGLVQAGGSLRLSCAASGSTFDYYAMGWYRQAPGKERELVGVISSSGGSTYYADSVKGGFTISRDNAKNTVYLQMNSLKPEDTAVYYCAALYRNYGSSYAYYYWGQGTQVTVSS | low polyreactivity
QVQLVESGGGLVQAGGSLRLSCAASGSTFDYYAMGWYRQTPGKERELVAAISWSGGSTYYADSVKGRFTISRDNAKNTVYLQMNSPKPEDTAVYYCATGTYFPRYKYFEGYYWGQGTQVTVSS | high polyreactivity
QVQLVESGGGLVQAGGSLRLSCAASGSTFDYYDMGWYRQAPGKERELVATVTSGGSTNYADSVKGRFTISRDNAKNTVYLQMNSLKPEDTAVYYCAADIGGDGEGYDYWGQGTQVTLSS | low polyreactivity
QVQLVESGGGLVQAGGSLRLSCAASGSTFDYYPMGWYRQAPGKERELVAGIDSAGSTNYADSVKGRFTISRDNAKNTVYLQMNSLKTGRYRGLYCNVGKTITTYAFPTFDYWGQGTQVTVSS | low polyreactivity
QVQLVESGGGLVQAGGSLRLSCAASGSTFDYYTMGWYRQAPGKERELVAAINSSGGRTYYADSVKGRFTISRDNAKNTDYLQMNSLKPEVTAVYYCARTRSVYGYDYWGQGTQVTVSS | high polyreactivity
QVQLVESGGGLVQAGGSLRLSCAASGSTFDYYYMGWYRQAPGKERELVAAISYSGTSTYYADSVKGRFTISRDNAKNTVYLQMNSQKPEDTAVYYCAKVFPDWYWYDYCGQGTQVTVSS | low polyreactivity
QVQLVESGGGLVQAGGSLRLSCAASGSTFEANAMGWYRQAPGKERELVAVITWTGGSTYYADSVKGRFTISRDNAKNTVYLQMNSLKPEDTAVYYCAADGVVPCRFFWPAHEYDYWGQGTQVTVSS | low polyreactivity
QVQLVESGGGLVQAGGSLRLSCAASGSTFEAYAMGWYRQAPGKERELVAAINFTGGRTYYADSVKGRFTISRDNAKNTVYLQINSLKPEDTAVYYCAARKWGVPYIDNDYWGQGTQVTVSS | low polyreactivity
QVQLVESGGGLVQAGGSLRLSCAASGSTFEDYTLGGYRQATGKERELVAAINWDGSRTYYADSVKGRFTISRDNAKNTVYLQMNSLKPEDTAVYDCAAHSAYHRRRMYYWGQGTQVTVSS | high polyreactivity
QVQLVESGGGLVQAGGSLRLSCAASGSTFEGYAMGWYRQAPGKERELVAVISSGSITKYADSVKGRFTISRDNAKNTVYLQMNSLKPEDTAVYYCARKGGIIFASYLLGGYWGQGTQVTVSS | low polyreactivity
QVQLVESGGGLVQAGGSLRLSCAASGSTFEHYAMGWYRQAPGKERELVAAITRRGGSTYYADSVKGRFTISSDNAKNTVYLQMNSLKPEDTAVYYCYTVLRYSYYLPGYDYWGQGTQVTVSS | high polyreactivity
QVQLVESGGGLVQAGGSLRLSCAASGSTFENYVRGWYRQAPGKERELFAAISRGGGSTHYADSVKGRFTISRDNAKITVYLQKKSLKPEDTAVYYCAARYQTYVGSSSISTGIYYYWGQGTQVTVSS | low polyreactivity
QVQLVESGGGLVQAGGSLRLSCAASGSTFEPYAMGWYRQAPGKEREFVAAISGSGGSTYYADSVKGRFTISRDNAKNTVYLQMNSLKPEDTAVSYCAKDSFPWVDDDYWGQATQVTVSS | low polyreactivity

Sequence | polyreactivity (PSR sort gate)
QVQLVESGGGLVQAGGSLRLSCAASGSTFESYAMGWYRQAPGKERELVAAISQNGGSTYYADSVKGRFTISRDNAKNTVYLQMNSLKPEDTAVYYCNADVYPYYRKPWMDYWGQGPQVTVSS | low polyreactivity
QVQLVESGGGLVQAGGSLRLSCAASGSTFESYDMGWYRPAPGKERELVAAIDWSGGITYYADSVKGRFTISRDNAKNTVYLQMNSLKPEDTAVYYCNADWFVRYPKRVYWSEYDYWGHGTQVTVSS | low polyreactivity
QVQLVESGGGLVQAGGSLRLSCAASGSTFEVYVMGWYRQAPGKERELVAGISKRGGRTYYADSVKGRFTISRDTEKNTVYLQLNSLKPEDTAVYYCAADAPGHEYYYWGQGTQVTVSS | high polyreactivity
QVQLVESGGGLVQAGGSLRLSCAASGSTFEWYAMGGYRQAPGKEREFVASISWSGGRTYYADSVKGRFTISRDNAKNTVYLQMNSLKPEDTAVYYCAAVAVPLQVPSGRAASKRRYGYWGQGTQVTVSS | high polyreactivity
QVQLVESGGGLVQAGGSLRLSCAASGSTFEYNAKGWYRQAPGKERELVASSTNYADSVKGRFTISRDNAKNTVYFQMNSLKPEDTAVYYCAARSLRYPYDYWGQGTQVTVSS | low polyreactivity
QVQLVESGGGLVQAGGSLRLSCAASGSTFEYNAMGWYRQAPGKERELVASSTNYADSVKGRFTISRDNAKNTVYLQMNSLKPEDTAVYYCAREQGVNRNHDYWGQGTQGTVSS | low polyreactivity
QVQLVESGGGLVQAGGSLRLSCAASGSTFEYNAMGWYRQAPGKERELVASSTNYAEAVKGRFTISRDNAKNTVYLQMNCLKPVDTAVYYCAREQGVNRNHDYWGQGTQVTVSS | low polyreactivity
QVQLVESGGGLVQAGGSLRLSCAASGSTFEYNAMGWYRQAPGKESELVASSTNYADSVKGRFTISRDNAKNTVYFQMNSLKPEDTAVYYCSREQGVNRNHDYWGQGTQVTVSS | low polyreactivity
QVQLVESGGGLVQAGGSLRLSCAASGSTFEYNDMGWYRQAPGKERELVAAISSGGDTNYADSVKGRFTISRDNAKITVYLQMNSLKPEDTAVYYCAADDWAPYRWYYGYAGYYYWGQGTLVTVSS | low polyreactivity
QVQLVESGGGLVQAGGSLRLSCAASGSTFEYYAMGWYRQAPGKERELVAAISRTGGRTYYADSVKGRFTISRDNAKNTVYLQMNSLKPEDTAVYYCNAVTRIGGGDYDDWGQGTQVTVSS | low polyreactivity
QVQLVESGGGLVQAGGSLRLSCAASGSTFEYYVMGWYRQAPGKERELVAAISGSGGGTYYADSVKGRFTISRDNAKNTVYLQMNSLKPEDTAVYYCAAVATQEKYDYWGQGTQVTVSS | low polyreactivity
QVQLVESGGGLVQAGGSLRLSCAASGSTFFANAMGWYRQAPGKERELVAAITSGGSTYYADSVKVRFTISRDNAKNTVYLQMNSLKPEDTAVYYCAAPLCGGARWGRWWLYDSWGQGTQVNVSS | low polyreactivity
QVQLVESGGGLVQAGGSLRLSCAASGSTFFAYAMGWYRQAPGKERELVAAITGRGSTYYADSVKGRFTISRDNAKNTVYLQMNSLKPEDTAVYYCAAQRSRRYYRLDYWGQGTQVTVSS | high polyreactivity
QVQLVESGGGLVQAGGSLRLSCAASGSTFFGNAMGWYRQAPGTERELVAAIRFSGVGTYYADSVKGRFTISLDNAKNTVYLQMNSLKPEDTAVYYSAAESYYKYYWGQGTQVTVSS | low polyreactivity
QVQLVESGGGLVQAGGSLRLSCAASGSTFFHYAMGWYRQAPGKERELVAAISGSGGSTYYADSVKGRFTISRDNAKNTVYLQMNSLKPEDTAVYYCNARVWHYTSRTTFDYWGQGTQVTVSS | low polyreactivity
QVQLVESGGGLVQAGGSLRLSCAASGSTFFIYAMGWYRQAPGKERELVAAITSGGTYADSVKGRFTISRDNAKNTVYLQMNSLKPEDTAVYYCNAGNNVVVDYDYWGQGTQVTVSS | low polyreactivity
